Source: the RNAGym collection of RNA variant scans (doi:10.1093/molbev/msab373)

B1: Azoarcus group I ribozyme (parent)
chain: GUGCCUUGCGCCGGGAAACCACGCAAGGGAUGGUGUCAAAUUCGGCGAAACCUAAGCGCCCGCCCGGGCGUAUGGCAACGCCGAGCCAAGCUUCGGCGCCUGCGCCGAUGAAGGUGUAGAGACUAGACGGCACCCACCUAAGGCAAACGCUAUGGUGAAGGCAUAGUCCAGGGAGUGGCGAAAGUCACACAAACCGG

Variants of: B1
Assay: reverse-splicing fitness (ratio to wild type); higher = more active; in vitro selection; Mg2+ level not given
Outline: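 An in vitro group I ribozyme library with randomized positions was T7-transcribed and gel-purified. In triplicate, 10 pmol RNA in EPPS pH 7.5 was reacted with 50 pmoles of a 30-nt RNA substrate for 1 h at 37 °C across several added MgCl2 levels (1–48 mM), then stopped with EDTA. Products were reverse transcribed from a substrate-complementary primer, PCR-amplified and sequenced (HiSeq 4000). Fitness is a variant's read proportion after selection over that before, normalised to wild type.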

Going from C82G A111G A120G A145G C150G C169U U176G to C82G A111G A120C A145U C150G U176C, the reverse-splicing fitness rises from 0.00812 to 0.0121.

Compared with C82G A111G A120C A145U C150G U176A, C82G A111G A120C A145U C150G U176G is lower in reverse-splicing fitness: 0.00634 for the first, 0.00435 for the second.

First: C82G A111G A120C A145U C150A U176C
Second: C82G A111G A120C A145U C150A U176G
The reverse-splicing fitness of the first is higher: 0.0167 for the first, 0.00773 for the second.

First: C82G A111G A120C A145U C150A U176A
Second: C82G A111G A120G A145G C150A
The reverse-splicing fitness of the first is higher: 0.0132 for the first, 0.0101 for the second.

First: C82G A111G A120G A145G C150U
Second: C82G A111G A120G A145G C150G
The reverse-splicing fitness of the first is higher: 0.0167 for the first, 0.00815 for the second.

Going from C82G A111G A120G A145C C150U C169U U176A to C82G A111G A120G A145C C150U C169U U176C, the reverse-splicing fitness falls from 0.0174 to 0.0151.

First: C82G A111G A120G A145C C150U C169U U176G
Second: C82G A111G A120G A145C C150G C169U
The reverse-splicing fitness of the first is lower: 0.00538 for the first, 0.00843 for the second.

First: C82G A111G A120G A145C C150G C169A
Second: C82G A111G A120G A145C C150G C169G
The reverse-splicing fitness of the first is higher: 0.00962 for the first, 0.00841 for the second.

Going from C82G A111G A120G A145G C150G U176A to C82G A111G A120G A145G C150G U176C, the reverse-splicing fitness rises from 0.00718 to 0.0114.

Going from C82G A111G A120G A145G C150G U176G to C82G A111G A120C A145G C150A C169U, the reverse-splicing fitness rises from 0.00608 to 0.0118.

First: C82G A111G A120C A145G C150A C169A
Second: C82G A111G A120C A145G C150A C169G
The reverse-splicing fitness of the first is higher: 0.0118 for the first, 0.0104 for the second.

First: C82G A111G A120G A145C
Second: C82G A111G A120G A145U
The reverse-splicing fitness of the first is lower: 0.0157 for the first, 0.0198 for the second.

Compared with C82G A111G A120G A145G, C82G A111G A120G A145G C150U C169A U176A is lower in reverse-splicing fitness: 0.0179 for the first, 0.0163 for the second.

Compared with C82G A111G A120G A145G C150U C169A U176G, C82G A111G A120G A145G C150U C169A U176C is higher in reverse-splicing fitness: 0.00616 for the first, 0.0177 for the second.

Going from C82G A111G A120G A145C C150G C169U U176A to C82G A111G A120G A145C C150G C169U U176G, the reverse-splicing fitness falls from 0.0139 to 0.00615.

First: C82G A111G A120G A145C C150G C169U U176C
Second: C82G A111G A120G A145G C150U U176A
The reverse-splicing fitness of the first is higher: 0.0147 for the first, 0.0115 for the second.

First: C82G A111G A120G A145G C150U U176C
Second: C82G A111G A120G A145G C150U U176G
The reverse-splicing fitness of the first is higher: 0.0189 for the first, 0.00823 for the second.

First: C82G A111G A120C A145G C150A C169U U176A
Second: C82G A111G A120C A145G C150A C169U U176C
The reverse-splicing fitness of the first is higher: 0.0153 for the first, 0.015 for the second.

First: C82G A111G A120C A145G C150A C169U U176G
Second: C82G A111G A120C A145U C150A C169A U176C
The reverse-splicing fitness of the first is lower: 0.00817 for the first, 0.0161 for the second.

Going from C82G A111G A120C A145U C150A C169A U176G to C82G A111G A120C A145U C150A C169A U176A, the reverse-splicing fitness rises from 0.0061 to 0.0183.

Going from C82G A111G A120C A145U C150G C169A U176G to C82G A111G A120C A145U C150G C169A U176A, the reverse-splicing fitness rises from 0.00589 to 0.0119.

First: C82G A111G A120C A145U C150G C169A U176C
Second: C82G A111G A120C C150U C169G U176C
The reverse-splicing fitness of the first is lower: 0.0134 for the first, 0.0206 for the second.

Going from C82G A111G A120C C150U C169G U176G to C82G A111G A120C C150U C169G U176A, the reverse-splicing fitness rises from 0.00572 to 0.0185.

First: C82G A111G A120C C150A C169G U176A
Second: C82G A111G A120C C150A C169G U176G
The reverse-splicing fitness of the first is higher: 0.0218 for the first, 0.00655 for the second.

Compared with C82G A111G A120C C150A C169G U176C, C82G A111G A120C A145G C150U U176G is lower in reverse-splicing fitness: 0.0218 for the first, 0.0117 for the second.

First: C82G A111G A120C A145G C150U U176A
Second: C82G A111G A120C A145G C150U U176C
The reverse-splicing fitness of the first is lower: 0.0189 for the first, 0.0344 for the second.

Compared with C82G A111G A120G A145C C150U C169U, C82G A111G A120G A145C C150U C169G is higher in reverse-splicing fitness: 0.0088 for the first, 0.0111 for the second.

First: C82G A111G A120G A145C C150U C169A
Second: C82G A111G A120G A145C C150G C169G U176G
The reverse-splicing fitness of the first is higher: 0.00962 for the first, 0.00523 for the second.

Going from C82G A111G A120G A145C C150G C169G U176C to C82G A111G A120G A145C C150G C169G U176A, the reverse-splicing fitness rises from 0.00887 to 0.00914.

Compared with C82G A111G A120C A145U C150U C169A U176A, C82G A111G A120C A145U C150U C169A U176C is lower in reverse-splicing fitness: 0.0171 for the first, 0.0137 for the second.

Compared with C82G A111G A120C A145U C150U C169A U176G, C82G A111G A120C C150A C169A is higher in reverse-splicing fitness: 0.00592 for the first, 0.0106 for the second.

First: C82G A111G A120C C150A C169U
Second: C82G A111G A120C C150A C169G
The reverse-splicing fitness of the first is higher: 0.0123 for the first, 0.00943 for the second.

Going from C82G A111G A120G A145C C169U to C82G A111G A120G A145C C169A, the reverse-splicing fitness falls from 0.0132 to 0.0114.

First: C82G A111G A120G A145C C169G
Second: C82G A111G A120G A145G C150U C169U U176G
The reverse-splicing fitness of the first is higher: 0.0204 for the first, 0.00668 for the second.

C82G A111G A120G A145G C150U C169U U176A and C82G A111G A120G A145G C150U C169U U176C are the same in reverse-splicing fitness: 0.0177 for the first, 0.0177 for the second.

Going from C82G A111G A120C A145G C150A C169A U176G to C82G A111G A120C A145G C150A C169A U176C, the reverse-splicing fitness rises from 0.00804 to 0.0227.

First: C82G A111G A120C A145G C150A C169A U176A
Second: C82G A111G A120G A145G C150G C169G
The reverse-splicing fitness of the first is higher: 0.0208 for the first, 0.00845 for the second.

First: C82G A111G A120G A145G C150G C169A
Second: C82G A111G A120G A145G C150G C169U
The reverse-splicing fitness of the first is lower: 0.00957 for the first, 0.00986 for the second.

Compared with C82G A111G A120C A145C U176C, C82G A111G A120C A145C U176A is lower in reverse-splicing fitness: 0.035 for the first, 0.0266 for the second.

Compared with C82G A111G A120C A145C U176G, C82G A111G A120C C169G U176A is higher in reverse-splicing fitness: 0.00938 for the first, 0.0164 for the second.

Going from C82G A111G A120C C169G U176C to C82G A111G A120C C169G U176G, the reverse-splicing fitness falls from 0.0193 to 0.00531.

First: C82G A111G A120G A145C C169G U176G
Second: C82G A111G A120G A145C C169G U176A
The reverse-splicing fitness of the first is lower: 0.00483 for the first, 0.0262 for the second.
